The source of these data is paper PMC5296750.

Assay [1] concerns the target Pyrococcus abyssi minichromosome maintenance protein (PabMCM), full-length, devoid of inteins (Pyrococcus abyssi). The assay is described as follows: SEC; Superose 6 10/300 GL, 20 mM HEPES pH 7.4, 150 mM NaCl, 0.3 ml/min; apparent molecular weight estimated against gel-filtration standards.
The target is the same in assay [2]. As to the kind of experiment: negative-stain electron microscopy with single particle analysis; 1% uranyl acetate, FEI F20 FEG, 50,000x, MSA classification (IMAGIC-5), 3D reconstruction with EMAN2; map at 22 Å.
Assay [3] has the same target. As to the kind of experiment: cryo-EM, reference-free 2D classification; Quantifoil grids with thin carbon, plunge-frozen; ~33,000 particles, Relion 2D classification without imposed symmetry.

“And” between values parts separate entries of the source, which are not always exact repeats. Identical values can stand only once.

In general, stoichiometry N refers to a count of units in the complex or per binding partner. In the case of “Pyrococcus abyssi minichromosome maintenance protein (PabMCM), full-length, devoid of inteins (enzyme)”, the stoichiometry N in assay [1] was 8; in assay [2], 8 and 7; in assay [3], 8.
